Results published in US20260035462A1 (Hoffmann-La Roche, published 2026).

T1: Trop2 on human cancer cell lines (T-47D, HPAF II, HeLa NLR, OVMANA) (human, UniProt P09758 27-323)
T1 construct: whole, on cells; also called Tumor-associated calcium signal transducer 2
T1 sequence (looked up): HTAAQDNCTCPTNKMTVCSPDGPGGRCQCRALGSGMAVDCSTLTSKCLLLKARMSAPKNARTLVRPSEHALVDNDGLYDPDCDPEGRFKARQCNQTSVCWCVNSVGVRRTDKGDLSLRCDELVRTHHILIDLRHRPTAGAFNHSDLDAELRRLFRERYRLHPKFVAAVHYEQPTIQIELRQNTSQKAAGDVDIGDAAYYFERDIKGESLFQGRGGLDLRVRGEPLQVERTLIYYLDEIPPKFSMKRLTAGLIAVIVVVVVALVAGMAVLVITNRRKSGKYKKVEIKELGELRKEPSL


Legend:
[1] = target: T1, Trop2 on human cancer cell lines …; assay: flow cytometry on T-47D cells, FITC anti-human IgG Fcγ secondary antibody, median fluorescence
Description: (§1) Target cells were harvested and transferred into a 96 well round bottom plate (100,000 cells per well). […] After the staining, the cells were washed twice with FACS buffer to remove unbound molecules. […] After 30 minutes incubation at 4° C. the cells were washed twice with FACS buffer to remove unbound antibodies. Finally, the cells were resuspended in 100 μl FACS buffer and analyzed by flow cytometry using BD Canto II.

[2] = target: T1, Trop2 on human cancer cell lines …; assay: flow cytometry on HeLa ST14 cells, FITC anti-human IgG Fcγ secondary antibody, median fluorescence
Description: as §1

[3] = target: T1, Trop2 on human cancer cell lines …; assay: flow cytometry on OVMANA cells, FITC anti-human IgG Fcγ secondary antibody, median fluorescence
Description: as §1

[4] = target: T1, Trop2 on human cancer cell lines …; assay: flow cytometry on HPAF II cells, FITC anti-human IgG Fcγ secondary antibody, median fluorescence
Description: as §1

[5] = target: T2, human CD3 on Jurkat NFAT reporter T cells (human, UniProt P07766 23-207); assay: flow cytometry on Jurkat NFAT reporter T cells (human CD3), 1:4 titration from 50 nM, FITC anti-human IgG Fcγ secondary antibody, median fluorescence; sample pre-incubated overnight with Matriptase (+M)
T2 construct: whole, on cells; also called CD3 on Jurkat T cells
T2 sequence (P07766 23-207): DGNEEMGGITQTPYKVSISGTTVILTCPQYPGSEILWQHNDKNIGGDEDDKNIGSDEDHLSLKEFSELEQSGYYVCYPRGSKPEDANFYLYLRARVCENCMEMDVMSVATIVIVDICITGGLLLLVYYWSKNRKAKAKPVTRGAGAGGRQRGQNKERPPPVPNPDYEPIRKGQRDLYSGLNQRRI
Description: (§2) Jurkat-NFAT reporter cells (GloResponse Jurkat NFAT-RE-luc2P; Promega #CS176501) are a human acute lymphatic leukemia reporter cell line with a NFAT promoter, expressing human CD3. The cells were cultured in RPMI1640, 2 g/l glucose, 2 g/l NaHCO₃, 10% FBS, 25 mM HEPES, 2 mM L-glutamin, 1×NEAA, 1× sodium-pyruvate at 0.1-0.5 mio cells per ml.
(§3) The next day, Jurkat cells were harvested and transferred into a 96 well round bottom plate (100,000 cells per well). […] After the staining, the cells were washed twice with FACS buffer to remove unbound molecules. […] After 30 minutes incubation at 4° C. the cells were washed twice with FACS buffer to remove unbound antibodies. Finally, the cells were resuspended in 100 μl FACS buffer and analyzed by flow cytometry using BD Canto II.

[6] = target: T2, human CD3 on Jurkat NFAT reporter T …; assay: flow cytometry on Jurkat NFAT reporter T cells (human CD3), 1:4 titration from 50 nM, FITC anti-human IgG Fcγ secondary antibody, median fluorescence; sample not treated with Matriptase
Description: as §2, §3

[7] = target: T2, human CD3 on Jurkat NFAT reporter T …; assay: flow cytometry on Jurkat NFAT reporter T cells (human CD3), 1:4 titration from 50 nM, FITC anti-human IgG Fcγ secondary antibody, median fluorescence; sample pre-incubated overnight with Matriptase (+M); remark: listed apart in the source
Description: (§4) Jurkat-NFAT reporter cells (GloResponse Jurkat NFAT-RE-luc2P; Promega #CS176501) are a human acute lymphatic leukemia reporter cell line with a NFAT promoter, expressing human CD3. The cells were cultured in RPMI1640, 2 g/l glucose, 2 g/l NaHCO₃, 10% FBS, 25 mM HEPES, 2 mM L-glutamin, 1×NEAA, 1×sodium-pyruvate at 0.1-0.5 mio cells per ml.
(§5) The next day, Jurkat cells were harvested and transferred into a 96 well round bottom plate (100′000 cells per well). […] After the staining, the cells were washed twice with FACS buffer to remove unbound molecules. […] After 30 min incubation at 4° C. the cells were washed twice with FACS buffer to remove unbound antibodies. Finally, the cells were resuspended in a 100 μl FACS buffer and analyzed by flow cytometry using BD Canto II.

[8] = target: T2, human CD3 on Jurkat NFAT reporter T …; assay: flow cytometry on Jurkat NFAT reporter T cells (human CD3), 1:4 titration from 50 nM, FITC anti-human IgG Fcγ secondary antibody, median fluorescence; sample not treated with Matriptase; remark: listed apart in the source
Description: as §4, §5

Binder | EC50 (read off the curve) [1] [nM] | EC50 (read off the curve) [2] [nM] | EC50 (read off the curve) [3] [nM] | EC50 (read off the curve) [4] [nM] | EC50 (read off the curve) [5] [nM] | EC50 (read off the curve) [6] [nM] | EC50 (read off the curve) [7] [nM] | EC50 (read off the curve) [8] [nM]
classical Trop2 TCB P1AI0692 (unmasked) (bispecific antibody, human IgG1, lambda, L234A L235A, Tested with and without Matriptase pre-treatment; no mask; also called unmasked Trop2 TCB; unmasked classical TCB) heavy 1: DIQMTQSPSSLSASVGDRVTITCKASQDVSIAVAWYQQKPGKAPKVLIYSASYRYTGVPDRFSGSGSGTDFTFTISSLQPEDIAVYYCQQHYITPLTFGGGTKVEIKSSASTKGPSVFPLAPSSKSTSGGTAALGCLVKDYFPEPVTVSWNSGALTSGVHTFPAVLQSSGLYSLSSVVTVPSSSLGTQTYICNVNHKPSNTKVDKKVEPKSCDKTHTCPPCPAPEAAGGPSVFLFPPKPKDTLMISRTPEVTCVVVDVSHEDPEVKFNWYVDGVEVHNAKTKPREEQYNSTYRVVSVLTVLHQDWLNGKEYKCKVSNKALGAPIEKTISKAKGQPREPQVCTLPPSRDELTKNQVSLSCAVKGFYPSDIAVEWESNGQPENNYKTTPPVLDSDGSFFLVSKLTVDKSRWQQGNVFSCSVMHEALHNHYTQKSLSLSPG heavy 2: not shown light 1: QAVVTQEPSLTVSPGGTVTLTCGSSTGAVTTSNYANWVQEKPGQAFRGLIGGTNKRAPGTPARFSGSLLGGKAALTLSGAQPEDEAEYYCALWYSNLWVFGGGTKLTVLGQPKAAPSVTLFPPSSKKLQANKATLVCLISDFYPGAVTVAWKADSSPVKAGVETTTPSKQSNNKYAASSYLSLTPEQWKSHRSYSCQVTHEGSTVEKTVAPTECS light 2: QIQLVQSGHEVKKPGASVKVSCKASGYTFTNYGMNWVRQAPGQGLEWMGWINTKTGEPTYAEEFKGRFVFSLETSASTAYLQISSLKAEDMAMYFCGRGGYGSSYWYFDVWGQGTTVTVSSASVAAPSVFIFPPSDEQLKSGTASVVCLLNNFYPREAKVQWKVDNALQSGNSQESVTEQDSKDSTYSLSSTLTLSKADYEKHKVYACEVTHQGLSSPVTKSFNRGEC | ~0.9 | ~1 | ~1 | ~1 | ~1 | ~1 |  | 
Matriptase pre-cleaved IGF-1R proTCB (P1AH0943 after overnight incubation with human recombinant Matriptase) (bispecific antibody, also called Matriptase pre-cleaved (+M) IGF-1R proTCB) heavy 1: EIVLTQSPATLSLSPGERATLSCRASQSVSSYLAWYQQKPGQAPRLLIYDASKRATGIPARFSGSGSGTDFTLTISSLEPEDFAVYYCQQRSKWPPWTFGQGTKVESKSSASTKGPSVFPLAPSSKSTSGGTAALGCLVKDYFPEPVTVSWNSGALTSGVHTFPAVLQSSGLYSLSSVVTVPSSSLGTQTYICNVNHKPSNTKVDKKVEPKSCDKTHTCPPCPAPEAAGGPSVFLFPPKPKDTLMISRTPEVTCVVVDVSHEDPEVKFNWYVDGVEVHNAKTKPREEQYNSTYRVVSVLTVLHQDWLNGKEYKCKVSNKALGAPIEKTISKAKGQPREPQVCTLPPSRDELTKNQVSLSCAVKGFYPSDIAVEWESNGQPENNYKTTPPVLDSDGSFFLVSKLTVDKSRWQQGNVFSCSVMHEALHNHYTQKSLSLSPG heavy 2: not shown light 1: QAVVTQEPSLTVSPGGTVTLTCGSSTGAVTTSNYANWVQEKPGQAFRGLIGGTNKRAPGTPARFSGSLLGGKAALTLSGAQPEDEAEYYCALWYSNLWVFGGGTKLTVLGQPKAAPSVTLFPPSSKKLQANKATLVCLISDFYPGAVTVAWKADSSPVKAGVETTTPSKQSNNKYAASSYLSLTPEQWKSHRSYSCQVTHEGSTVEKTVAPTECS light 2: QVELVESGGGVVQPGRSQRLSCAASGFTFSSYGMHWVRQAPGKGLEWVAIIWFDGSSTYYADSVRGRFTISRDNSKNTLYLQMNSLRAEDTAVYFCARELGRRYFDLWGRGTLVSVSSASVAAPSVFIFPPSDEQLKSGTASVVCLLNNFYPREAKVQWKVDNALQSGNSQESVTEQDSKDSTYSLSSTLTLSKADYEKHKVYACEVTHQGLSSPVTKSFNRGEC |  |  |  |  |  |  | ~0.9 | 
classical IGF-1R TCB P1AH0975 (unmasked) (bispecific antibody, human IgG1, lambda, L234A L235A, Tested with and without Matriptase pre-treatment; no mask; also called unmasked classical IGF-1R TCB) heavy 1: EIVLTQSPATLSLSPGERATLSCRASQSVSSYLAWYQQKPGQAPRLLIYDASKRATGIPARFSGSGSGTDFTLTISSLEPEDFAVYYCQQRSKWPPWTFGQGTKVESKSSASTKGPSVFPLAPSSKSTSGGTAALGCLVKDYFPEPVTVSWNSGALTSGVHTFPAVLQSSGLYSLSSVVTVPSSSLGTQTYICNVNHKPSNTKVDKKVEPKSCDKTHTCPPCPAPEAAGGPSVFLFPPKPKDTLMISRTPEVTCVVVDVSHEDPEVKFNWYVDGVEVHNAKTKPREEQYNSTYRVVSVLTVLHQDWLNGKEYKCKVSNKALGAPIEKTISKAKGQPREPQVCTLPPSRDELTKNQVSLSCAVKGFYPSDIAVEWESNGQPENNYKTTPPVLDSDGSFFLVSKLTVDKSRWQQGNVFSCSVMHEALHNHYTQKSLSLSPG heavy 2: not shown light 1: QAVVTQEPSLTVSPGGTVTLTCGSSTGAVTTSNYANWVQEKPGQAFRGLIGGTNKRAPGTPARFSGSLLGGKAALTLSGAQPEDEAEYYCALWYSNLWVFGGGTKLTVLGQPKAAPSVTLFPPSSKKLQANKATLVCLISDFYPGAVTVAWKADSSPVKAGVETTTPSKQSNNKYAASSYLSLTPEQWKSHRSYSCQVTHEGSTVEKTVAPTECS light 2: QVELVESGGGVVQPGRSQRLSCAASGFTFSSYGMHWVRQAPGKGLEWVAIIWFDGSSTYYADSVRGRFTISRDNSKNTLYLQMNSLRAEDTAVYFCARELGRRYFDLWGRGTLVSVSSASVAAPSVFIFPPSDEQLKSGTASVVCLLNNFYPREAKVQWKVDNALQSGNSQESVTEQDSKDSTYSLSSTLTLSKADYEKHKVYACEVTHQGLSSPVTKSFNRGEC |  |  |  |  |  |  | ~0.8 | ~0.7
